Reference: US20110104248A1, “LIPOSOMES AND IMMUNOPOTENTIATING COMPOSITIONS CONTAINING THE SAME” (FOODCHEMIFA CO., LTD., priority 2007, published 2011)

Assays:
C57BL/6 mice = test: Enhancing antibody production: serum anti-OVA IgG2a by ELISA; type: in vivo, mouse; conditions: 25 μg GSL-7 and 25 μg OVA through the caudal vein, serum after 14 days, ELISA absorbance at 405 nm
Procedure: Liposome F (in an amount so that 25 μg of GSL-7 and 25 μg of OVA were contained) was administered to C57BL/6 mice (8- to 10-week-old females) through the caudal vein. After 14 days, blood was collected and then serum anti-OVA antibody levels were measured by ELISA. An anti-OVA antibody titer (IgG2a) was assayed by adding the gradually diluted serum to a 96-well plate coated with OVA. Alkaline phosphatase (AP)-labeled anti-mouse IgG2a antibodies were used as detection antibodies. The color was developed using paranitrophenylphosphate (p-nitrophenyl phosphate) as a substrate. The reaction was terminated with 3N NaOH, the absorbance at 405 nm was measured using a microplate reader.

[1] = system: splenocytes stimulated with OVA; test: Antigen-specific IFN-γ production from splenocytes of treated mice; type: in vivo, mouse; conditions: 25 μg GSL-7 i.v.; spleen after 1 week; splenocytes stimulated with OVA 1 mg/ml, 96 hours
Procedure: Liposome F (prepared in an amount so that 25 μg of GSL-7 was contained) prepared as in Example 14 was administered to C57BL/6 mice (8- to 10-week-old males) through the caudal vein. After 1 week, the spleen was excised. Splenocytes (5×10^5) were stimulated with OVA (1 mg/ml). After 96 hours, IFN-γ levels in the culture supernatants were measured. IFN-γ levels were measured by sandwich ELISA using purified anti-IFN-γ antibodies (R4-6A2) as capture antibodies and biotin-labeled anti-IFN-γ antibodies (AN-18) as detection antibodies. In the subsequent reaction, alkaline phosphatase-labeled streptavidin was caused to bind to biotin-labeled antibodies. The color was developed using p-nitrophenyl phosphate as a substrate. The absorbance at a wavelength of 405 nm was measured using a microplate reader (MICROPLATE READER Model 550). IFN-γ concentrations in test samples were calculated based on the standard curve of IFN-γ in the recombinant mice.

B1: OVA: ovalbumin (OVA) (SIGMA), antigen (protein, UniProt P01012 2-386, looked up)
Ovalbumin: GSIGAASMEFCFDVFKELKVHHANENIFYCPIAIMSALAMVYLGAKDSTRTQINKVVRFDKLPGFGDSIEAQCGTSVNVHSSLRDILNQITKPNDVYSFSLASRLYAEERYPILPEYLQCVKELYRGGLEPINFQTAADQARELINSWVESQTNGIIRNVLQPSSVDSQTAMVLVNAIVFKGLWEKAFKDEDTQAMPFRVTEQESKPVQMMYQIGLFRVASMASEKMKILELPFASGTMSMLVLLPDEVSGLEQLESIINFEKLTEWTSSNVMEERKIKVYLPRMKMEEKYNLTSVLMAMGITDVFSSSANLSGISSAESLKISQAVHAAHAEINEAGREVVGSAEAGVDAASVSEEFRADHPFLFCIKHIATNAVLFFGRCVSP
Anti-OVA IgG2a (C57BL/6 mice): 0.049 ± 0.018 | IFN-γ [1]: 4.79 ± 0.45 ng/mL
